Reference: US20070280945A1 (Regeneron, published 2007)
Each block holds one binder with its values, some of them ahead of it.

How the values were obtained:
[1] = molecular target: T1, hIL-6R recombinant protein (plate-coated, Example 5) (human, UniProt P08887 20-358, limits assumed); assay: competition ELISA on hIL-6R-coated plate presaturated with competitor control antibody; test antibody 50 ng/ml
T1 construct: also called antigen
T1 sequence: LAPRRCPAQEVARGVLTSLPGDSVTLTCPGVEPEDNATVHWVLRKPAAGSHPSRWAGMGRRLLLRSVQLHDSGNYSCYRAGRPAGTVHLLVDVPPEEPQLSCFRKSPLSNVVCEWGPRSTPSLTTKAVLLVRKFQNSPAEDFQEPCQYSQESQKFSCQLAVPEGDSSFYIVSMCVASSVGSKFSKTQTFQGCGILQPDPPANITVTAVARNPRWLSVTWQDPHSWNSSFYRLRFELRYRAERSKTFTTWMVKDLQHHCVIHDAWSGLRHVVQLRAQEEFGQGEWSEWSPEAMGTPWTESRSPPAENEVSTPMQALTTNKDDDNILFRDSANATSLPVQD
Description: An antibody binding competition immunoassay was performed using as a control humanized antibody to human IL-6R. Briefly, a 96-well immunosorbent plate was coated with 20 ng per well hIL-6R recombinant protein overnight at 4° C. […] After one hour of additional binding, the free antibody was washed away and the plate-bound antibody was detected with HRP-conjugated goat anti-mouse IgG or IgA, polyclonal antibody and the plate was developed using chromatic HRP substrates and absorbance at 450 nm was recorded.

[2] = molecular target: T2, hIL-6R-hFc (human, UniProt P08887 20-358); assay: competition ELISA: antibody premixed with serial dilutions of hIL-6R-hFc, free antibody detected on hIL-6R-hFc-coated plate
T2 construct: also called dimeric hIL-6R; Dimer; not shown: human Fc (hFc)
T2 sequence: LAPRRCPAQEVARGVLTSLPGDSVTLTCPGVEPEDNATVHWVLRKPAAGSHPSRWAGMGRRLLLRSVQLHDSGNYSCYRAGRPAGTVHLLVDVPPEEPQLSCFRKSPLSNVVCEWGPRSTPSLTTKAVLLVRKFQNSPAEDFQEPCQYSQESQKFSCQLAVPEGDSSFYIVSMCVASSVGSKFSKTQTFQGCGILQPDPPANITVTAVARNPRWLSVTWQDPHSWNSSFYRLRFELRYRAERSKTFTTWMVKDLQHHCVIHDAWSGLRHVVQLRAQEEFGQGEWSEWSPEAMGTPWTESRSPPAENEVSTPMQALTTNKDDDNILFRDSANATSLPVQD

[3] = molecular target: T2, hIL-6R-hFc; assay: SPR (BIAcore): hIL-6R-hFc captured, antibody injected, then 50 nM hIL-6; percent reduction in hIL-6 binding
[4] = molecular target: T3, hIL-6R on hIL-6-responsive human cells (XG-1 myeloma line, HepG2 hepatoma line) (human, UniProt P08887 20-468); assay: cell-based or functional assay
T3 sequence (looked up): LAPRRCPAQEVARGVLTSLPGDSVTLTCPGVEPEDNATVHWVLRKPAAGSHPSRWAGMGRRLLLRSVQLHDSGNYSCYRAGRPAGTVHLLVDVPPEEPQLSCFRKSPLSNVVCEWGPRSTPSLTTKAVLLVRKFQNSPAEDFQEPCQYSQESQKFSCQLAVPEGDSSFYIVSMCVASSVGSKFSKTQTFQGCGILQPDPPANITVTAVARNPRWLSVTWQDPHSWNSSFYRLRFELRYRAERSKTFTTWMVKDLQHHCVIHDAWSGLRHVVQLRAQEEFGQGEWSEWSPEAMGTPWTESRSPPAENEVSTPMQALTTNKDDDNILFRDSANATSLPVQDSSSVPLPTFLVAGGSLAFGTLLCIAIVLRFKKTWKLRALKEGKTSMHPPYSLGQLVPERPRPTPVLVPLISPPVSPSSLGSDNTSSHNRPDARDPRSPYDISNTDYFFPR

[5] = molecular target: T4, recombinant hIL-6R protein, monomeric form (human, UniProt P08887 20-358); assay: SPR (BIAcore), antibody captured on anti-mouse IgG surface, monomeric hIL-6R
T4 construct: also called monomeric hIL-6R; Human IL6R
T4 sequence: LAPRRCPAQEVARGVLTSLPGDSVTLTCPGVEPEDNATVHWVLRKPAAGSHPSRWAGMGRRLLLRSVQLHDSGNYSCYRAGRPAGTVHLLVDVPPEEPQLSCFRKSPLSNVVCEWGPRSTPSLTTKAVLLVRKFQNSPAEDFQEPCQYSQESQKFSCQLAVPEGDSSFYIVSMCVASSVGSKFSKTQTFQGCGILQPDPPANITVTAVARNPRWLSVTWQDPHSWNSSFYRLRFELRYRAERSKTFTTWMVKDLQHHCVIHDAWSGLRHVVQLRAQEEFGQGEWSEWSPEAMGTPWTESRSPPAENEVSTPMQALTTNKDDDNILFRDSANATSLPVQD
Description: (§1) More specifically, the affinity of the antibodies for human IL-6R was measured using a BIAcore® 2000 or BIAcore® 3000. The antibody was captured on an anti-mouse IgG surface and exposed to various concentrations of recombinant hIL-6R protein either in monomeric or dimeric form. Kinetic analysis using BIAevaluation™ software was performed to obtain the association and dissociation rate constants.

[6] = molecular target: T4, recombinant hIL-6R protein, monomeric …; assay: SPR (BIAcore), captured antibody, monomeric hIL-6R
Description: (§2) Four antibodies were tested for cross-reactivity to monkey IL-6R recombinant protein using BIAcore™ technology. Briefly, a biosensor chip on which goat anti-mouse Fc polyclonal antibody was immobilized was used to present anti-hIL-6R monoclonal antibodies to a density of about 75 RU. […] The binding of the receptor to the antibody and the dissociation of the bound complex were monitored in real-time.

[7] = molecular target: T3, hIL-6R on hIL-6-responsive human cells …; assay: cell-based or functional assay; remark: listed apart in the source
[8] = molecular target: T5, Recombinant monkey monomeric IL-6R protein (Macaca fascicularis, extracellular domain) (Macaca fascicularis, UniProt P08887 21-330 (human entry)); assay: SPR (BIAcore), antibody captured on goat anti-mouse Fc, monomeric monkey IL-6R injected
T5 construct: also called Monkey IL6R; monkey IL-6R
T5 chain: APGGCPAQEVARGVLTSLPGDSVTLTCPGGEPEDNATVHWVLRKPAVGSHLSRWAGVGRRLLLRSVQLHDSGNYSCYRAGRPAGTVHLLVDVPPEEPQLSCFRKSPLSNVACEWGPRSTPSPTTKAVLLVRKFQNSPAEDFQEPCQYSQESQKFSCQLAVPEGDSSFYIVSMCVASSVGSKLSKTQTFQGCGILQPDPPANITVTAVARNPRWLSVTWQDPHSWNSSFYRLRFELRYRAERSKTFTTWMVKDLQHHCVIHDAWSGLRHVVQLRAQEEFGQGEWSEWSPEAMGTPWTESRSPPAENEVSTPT
Description: as §2

[9] = molecular target: T4, recombinant hIL-6R protein, monomeric …; assay: Kinexa solution-phase competition immunoassay, monomeric hIL-6R
[10] = molecular target: T4, recombinant hIL-6R protein, monomeric …; assay: SPR (BIAcore), antibody captured on goat anti-mouse Fc, monomeric IL-6R 1.25-40 nM injected
Description: as §2

[11] = molecular target: T4, recombinant hIL-6R protein, monomeric …; assay: SPR (BIAcore), captured mouse-IgG antibody, monomeric hIL-6R 1.56-12.5 nM
Excerpt: Briefly, a biosensor chip on which goat anti-mouse Fc polyclonal antibody was immobilized was used to present anti-hIL-6R monoclonal antibodies to a density of about 75 RU. […] The binding of the receptor to the antibody and the dissociation of the bound complex were monitored in real-time. Both association rate constant (ka) and dissociate rate constant (kd) were obtained, and KD calculated (Table 4).
The binding affinity to monomeric hIL-6R of four antibodies having mouse IgG, human IgG1 or human IgG4 (wild-type and modified) were determined using BIAcore™ as described above except a goat anti-human Fc polyclonal antibody surface was used to capture hIgG antibodies.

[12] = molecular target: T2, hIL-6R-hFc; assay: blocking ELISA: 100 pM hIL-6R-hFc premixed with varied antibody, free hIL-6R-hFc captured on hIL-6-coated plate
Description: This plate was used to capture free hIL-6R-hFc from antibody sample solutions, and the amount of captured hIL-6R-hFc was quantified according to the standard curve. The sample solutions were composed of a constant amount of hIL-6R-hFc recombinant protein (100 pM) and varying amounts of antibody, either in crude hybridoma condition medium or as purified antibody protein, ranging from 0 to about 50 nM in serial dilutions. The antibody-antigen mixtures were incubated at room temperature for ˜2 hours to allow antibody-antigen binding to reach equilibrium. […] After 1 hour binding, the plate was washed and bound hIL-6R-hFc was detected using HRP-conjugated goat anti-hFc polyclonal antibodies (Jackson Immuno Research), and developed using TMB substrate (BD Pharmigen).

[13] = molecular target: T2, hIL-6R-hFc; assay: SPR (BIAcore), antibody captured on anti-mouse IgG surface, dimeric hIL-6R
Description: as §1

[14] = molecular target: T1, hIL-6R recombinant protein …; assay: SPR (BIAcore) competition on hIL-6R; competitor: control antibody
[15] = molecular target: T4, recombinant hIL-6R protein, monomeric …; assay: SPR (BIAcore), captured antibody, monomeric hIL-6R; remark: listed apart in the source
Description: as §1

[16] = molecular target: T2, hIL-6R-hFc; assay: SPR (BIAcore), captured antibody, dimeric hIL-6R
Description: as §1

% reduction of binding by control antibody [1]: 3% | IC50 [2]: 0.041 nM | hIL6/hIL6R Binding Inhibition (%) [3]: 34% | HepG2/Stat3 Luciferase activity IC50 [4]: 0.578 nM | XG-1 cell proliferation Inhibition IC50 [4]: 1.8 nM | Kd [5]: 0.225 nM | Kd [6]: 0.241 nM | HepG2/STAT3 luciferase assay IC50 [7]: 0.578 nM | binding result [8]: no binding (tested: 1.25-40 nM) | Kd [9]: 0.197 nM | Kd [10]: 0.24 nM | koff [10]: 6.18e-05 s⁻¹ | kon [10]: 257000 M⁻¹ s⁻¹ | Kd [11]: 0.225 nM | koff [11]: 7.66e-05 s⁻¹ | kon [11]: 341000 M⁻¹ s⁻¹ | IC50 [12]: 1.1 nM | Kd [13]: 0.07 nM | % reduction of binding by control antibody [14]: 12%
B1: VV1G4-7 (antibody, IgG2a, V domains shown)
VH: QVQLVQSGAEVKEPGASVKVSCKASGYTFTSYDIIWVRQATGQGLEWMGWMNPNSGNTGYTQNLQGRVTLTRNTSITTVYMELSSLSSEDTAVYYCARDYSSHYYGLDVWGQGTTVTVSS
VL: DIQLTQSPSFLSTSIGDRVTITCWASQDISNYLAWYQQKPGKAPKLLIFVASTLQSGVPSRFSGSGSGTEFTLTISSLQPEDFATYYCQQFNSYPLTFGGGTKVEIK
notes: Human variable regions with mouse constant region

IC50 [2]: 0.36 nM | Kd [15]: 0.987 nM | Kd [16]: 0.785 nM
B2: 248982-13-1-E5 (antibody, V domains shown)
VH: QVQLVQSGGDLVQPGRSLRLSCAASGFTFDDYAMHWVRQTPGKGLEWVSGISWNSGAIGYADSVKGRFTISRDNAKNSLYLQMNSLRAEDTALYYCTKEEVGATVDYFYFYGMDVWGQGTTVTVSS
VL: EIVMTQSPATLSLSPGERATLSCWASQSVSNYLAWYQQKPGQAPRLLIYDASNRATGIPARFSGSGSGTDFTLTISSLEPEDFAVYYCQQRSNWPTFGQGTKVEIK
